Assay results as given in PMC12644819 (Nature Communications, 2025).
Each block holds one binder with its values, some of them ahead of it. Ends that are not written are not given here.

Legend:
[1] = biological target: T1, LptDEM^His (E. coli, UniProt P31554 25-784; P0ADC1 19-193; P0ADN6 20-67, lipoprotein | lipoprotein); assay: native MS; purified LptDEM^His and LptDE^His complexes; subpopulation with a mass shift of 14,301 Da; re-analysed and new spectra; conditions: both partners purified
T1 construct: LptD, E. coli; LptE, E. coli; LptM, E. coli; source: E. coli BW25113 wild type, from pLptDEM^His; purified (Ni-NTA, SEC) in DDM; copies: 1 + 1 + 1

[2] = biological target: T2, LptDE^His (E. coli, UniProt P31554 25-784; P0ADC1 19-193, lipoprotein); assay: as above; conditions: both partners purified
T2 construct: LptD, E. coli; LptE, E. coli; also called core translocon; the translocon; source: E. coli BW25113 (ΔlptM for native MS), from pLptDE^His or derivatives of pLptDME^His; Ni-NTA (and SEC) in DDM; copies: 1 + 1

[3] = biological target: T3, LptD (E. coli, UniProt P31554 25-784, disulfide bonds Cys31-Cys724 and Cys173-Cys725); assay: affinity purification with mass spectrometry; nickel-affinity chromatography and gel filtration of LptM^His (wild-type cells) or LptE^His (ΔlptM cells) from DDM-solubilised envelope; SDS-PAGE with Coomassie; ~15 kDa band identified by bottom-up mass spectrometry; conditions: partners not purified
T3 construct: LptD, E. coli outer membrane LPS transporter, β-taco domain plus 26-stranded β-barrel; called full-length LptD in contrast to the β-barrel truncation; Untagged wild-type LptD; also called full-length LptD; endogenous LptD; source: E. coli BW25113, overproduced from pLptDEM^His or pLptDE^His, or endogenous; DDM-solubilised envelope fraction; co-purified (Ni-NTA, SEC)
T3 sequence (looked up): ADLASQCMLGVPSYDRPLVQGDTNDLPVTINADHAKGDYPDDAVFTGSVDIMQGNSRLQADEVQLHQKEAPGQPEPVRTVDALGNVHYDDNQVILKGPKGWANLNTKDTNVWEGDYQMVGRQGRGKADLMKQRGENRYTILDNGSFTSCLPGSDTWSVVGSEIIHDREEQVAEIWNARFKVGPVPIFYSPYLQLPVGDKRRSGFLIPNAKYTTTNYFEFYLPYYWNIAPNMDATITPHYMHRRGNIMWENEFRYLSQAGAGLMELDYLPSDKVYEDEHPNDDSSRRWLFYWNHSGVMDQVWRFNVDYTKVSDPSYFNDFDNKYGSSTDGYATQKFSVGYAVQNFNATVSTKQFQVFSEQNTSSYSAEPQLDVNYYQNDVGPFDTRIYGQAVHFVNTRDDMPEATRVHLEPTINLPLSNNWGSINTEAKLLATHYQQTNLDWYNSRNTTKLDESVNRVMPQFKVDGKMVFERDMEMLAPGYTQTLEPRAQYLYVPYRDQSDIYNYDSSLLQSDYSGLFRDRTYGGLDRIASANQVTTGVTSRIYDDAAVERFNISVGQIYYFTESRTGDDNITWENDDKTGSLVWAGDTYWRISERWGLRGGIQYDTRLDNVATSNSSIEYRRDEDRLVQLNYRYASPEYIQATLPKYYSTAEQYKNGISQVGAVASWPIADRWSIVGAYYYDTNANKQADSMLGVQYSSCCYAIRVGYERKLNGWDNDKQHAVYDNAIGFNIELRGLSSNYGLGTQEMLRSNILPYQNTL

T1 sequence (P0ADC1 19-193, one chain of several): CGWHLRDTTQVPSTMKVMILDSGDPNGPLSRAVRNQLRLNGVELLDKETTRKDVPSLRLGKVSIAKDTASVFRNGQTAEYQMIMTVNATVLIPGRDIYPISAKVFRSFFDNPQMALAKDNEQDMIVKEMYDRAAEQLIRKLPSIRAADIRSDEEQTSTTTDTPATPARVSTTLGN
T2 sequence (P0ADC1 19-193, one chain of several): as above

stoichiometry N [1]: 1 LptD:LptE:LptM:LptY | stoichiometry N [2]: 1 LptD:LptE:LptY
B1: LptY (natural protein, E. coli, UniProt P31063 16-137, looked up)
chain: CAEVENYNNVVKTPAPDWLAGYWQTKGPQRALVSPEAIGSLIVTKEGDTLDCRQWQRVIAVPGKLTLMSDDLTNVTVKRELYEVERDGNTIEYDGMTMERVDRPTAECAAALDKAPLPTPLP
modifications: lipoprotein
notes: LptY (formerly YedD), E. coli OM lipoprotein of ~14 kDa; an AlphaFold2 model was docked; also called YedD; source: endogenous, E. coli BW25113; co-purified with LptDEM^His or LptDE^His (Ni-NTA, SEC)

binding result [3]: binds
B2: LptM^His (natural protein, E. coli, UniProt P0ADN6 20-67, looked up)
chain: CGLKGPLYFPPADKNAPPPTKPVETQTQSTVPDKNDRATGDGPSQVNY
modifications: also: lipoprotein, acyl tails on N-terminal Cys, His-tagged (LptM^His)
notes: LptM, E. coli lipoprotein; source: E. coli BW25113, from pLptDEM^His or pLptD^β-barrelEM^His; DDM-solubilised envelope fraction; purified (Ni-NTA, SEC)
